According to the supplement of paper PMC9170038:

Test system: MS2 coat protein
Assay: apparent KD of MS2 coat protein; higher = weaker reporter binding
Conditions: Eterna round: R107
Method: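 RNA-MaP round R107: designed RNA switches with theophylline, tryptophan, arginine or FMN aptamers are transcribed on-chip within common flanks. They are titrated with SNAP-549-labelled MS2 coat protein in RNA-MaP buffer (100 mM Tris pH 7.5, 80 mM KCl, 4 mM MgCl2), without ligand or with the indicated ligand. Median apparent KD per design.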

[1] = input ligand: theophylline 20 uM
[2] = input ligand: theophylline 2 mM
[3] = input ligand: tryptophan 2.4 mM

UGUACCAUGUCGGCCGCCACUCAUGAUAAAUAUGAGGAUCACCCAUAUAGCGUCAAAGACGCUAUGAGGACCGGGACAUGGUACU [TryBS Zipper 2]
apparent KD of MS2 coat protein (input ligand: arginine 13.2 mM): 40.8 nM
apparent KD of MS2 coat protein (input ligand: none): 41.3 nM
apparent KD of MS2 coat protein [1]: 50.5 nM
apparent KD of MS2 coat protein [2]: 50.4 nM
apparent KD of MS2 coat protein [3]: 14 nM

UCUUUCUAUGUAGAUACCAGCAUGUUAUCUUUCUUUUGACAUGAGGAUCACCCAUGUAAAUGCCCUUGGCAGCUACAUUUUCUUU [SSTHB #3]
apparent KD of MS2 coat protein (input ligand: arginine 13.2 mM): 21 nM
apparent KD of MS2 coat protein [1]: 20.9 nM
apparent KD of MS2 coat protein [3]: 19.7 nM

GGACUAACCAGAAGGAGCGGCACGCAGAAACUGCAAAUUCCUCCGCACGAGGAUCACCCGUGUCAGGUAGGUCGCUGGUUAGUCG [ArgBX 28]
apparent KD of MS2 coat protein (input ligand: arginine 13.2 mM): 20.8 nM
apparent KD of MS2 coat protein (input ligand: none): 19.7 nM
apparent KD of MS2 coat protein [1]: 25.9 nM
apparent KD of MS2 coat protein [2]: 24 nM
apparent KD of MS2 coat protein [3]: 22.6 nM

GCUGCACAUUCGGCCGCCACUGCUGUUACAGGAAGCUAUAGCUCACAUGAGGAUCACCCAUGUCCCAGGACCGGGAAAGUAUGGA [theeternabot_sameState_MS2_Trp_B_39]
apparent KD of MS2 coat protein (input ligand: arginine 13.2 mM): 41.2 nM
apparent KD of MS2 coat protein [1]: 79.2 nM
apparent KD of MS2 coat protein [2]: 74.2 nM

UUAUUUAUAAUGGAUACCAGUCGUAUGGCCCGGCAUCCUGACAUGAGGAUCACCCAUGUCGACCCUUGGCAGCUGUUAUGGGUUU [XTheo B #21]
apparent KD of MS2 coat protein (input ligand: arginine 13.2 mM): 14.9 nM
apparent KD of MS2 coat protein [1]: 17 nM
apparent KD of MS2 coat protein [3]: 13.8 nM

GGGUAUGAUCCGGAUACCAGCGAACAUGAGGAUCACCCAUGUGACCUAAGAUAGGCUCUACGCCCUUGGCAGCCGCGAUCGCAGA [Same State Theophylline B GF9]
apparent KD of MS2 coat protein (input ligand: arginine 13.2 mM): 20.4 nM
apparent KD of MS2 coat protein (input ligand: none): 22.3 nM
apparent KD of MS2 coat protein [1]: 23.2 nM
apparent KD of MS2 coat protein [2]: 13.3 nM
apparent KD of MS2 coat protein [3]: 24.7 nM

GUAUUAACAAAAGUUGAUACAGUGGGUGAACGAGGACCGGUACGGCCGCCACUCGGACAUGAGGAUCACCCAUGUCCAUGUGAAA [AstrosExyTryA#12]
apparent KD of MS2 coat protein (input ligand: arginine 13.2 mM): 15.9 nM
apparent KD of MS2 coat protein [1]: 19.2 nM
apparent KD of MS2 coat protein [2]: 17.2 nM

UUAGAUUGCCGAAGGAGCGAGAUAGCCUACAUGAGGAUCACCCAUGUAGAAACGGGCUGAUCUCAGGUAGGUCGCGGCAGGUAGC [Soaquatan]
apparent KD of MS2 coat protein (input ligand: arginine 13.2 mM): 84.6 nM
apparent KD of MS2 coat protein (input ligand: none): 26.2 nM
apparent KD of MS2 coat protein [1]: 27.4 nM
apparent KD of MS2 coat protein [2]: 25.8 nM
apparent KD of MS2 coat protein [3]: 24.9 nM

GGGCGAGUGGACCGGCGUGCUCCGCUCCGUCGAGGACCGGUACGGCCGCCACUCGACAUGAGGAUCACCCAUGUGCGAGCUCGCG [#1 Exclusion - Tryptophan A Attempt #14 (HarryS)]
apparent KD of MS2 coat protein (input ligand: arginine 13.2 mM): 32.7 nM
apparent KD of MS2 coat protein (input ligand: none): 77.5 nM
apparent KD of MS2 coat protein [1]: 114 nM
apparent KD of MS2 coat protein [2]: 82.4 nM
apparent KD of MS2 coat protein [3]: 86 nM

UGUUUGGUGCGCGAGUGUUGGAUAAUUGAUACCAGUGUAGAUGUGCGCCCUUGGCAGCGAAUCCGAACAUGAGGAUCACCCAUGU [5.Z]
apparent KD of MS2 coat protein (input ligand: arginine 13.2 mM): 41.2 nM
apparent KD of MS2 coat protein (input ligand: none): 27.1 nM
apparent KD of MS2 coat protein [1]: 32.3 nM
apparent KD of MS2 coat protein [2]: 35.7 nM
apparent KD of MS2 coat protein [3]: 29.5 nM

AUAACAUGAGGAUCACCCAUGUAUUGGUUACGAGGACCGGUACGGCCGCCACUCGUAUUUUGGUGGUAUUUUGUAUAUAUGAUAA [JR_SSTryptoA_Sub018]
apparent KD of MS2 coat protein (input ligand: arginine 13.2 mM): 26.6 nM
apparent KD of MS2 coat protein [1]: 32.3 nM
apparent KD of MS2 coat protein [2]: 36.5 nM

AACAUGAGGAUCACCCAUGUGUCCUCGAAACGAGGACCGGUACGGCCGCCACUCGAAUAAGGUGUUGACGAAAAGUCAGCACCAA [Mat - Exclusion - Trytophan A - D17]
apparent KD of MS2 coat protein (input ligand: arginine 13.2 mM): 111 nM
apparent KD of MS2 coat protein [1]: 314 nM
apparent KD of MS2 coat protein [2]: 338 nM

AGUGUUAUAACUGAUACCAGACCUUUGCUUAUACAUGAGGAUCACCCAUGUAAAAUGGCGGUCCCUUGGCAGCAGAGAAUACACA [#08 Same State - Theophylline B]
apparent KD of MS2 coat protein (input ligand: arginine 13.2 mM): 30.2 nM
apparent KD of MS2 coat protein [1]: 32.9 nM
apparent KD of MS2 coat protein [3]: 36.3 nM

ACACAUGAGGAUCACCCAUGUCCAAUAGAUACCAGUGAUACGGUGCACCCUUGGCAGCUGUUGCUGAGUGAUGGUUCCCUCGGAA [Same State Theophylline A GF4]
apparent KD of MS2 coat protein (input ligand: arginine 13.2 mM): 48.6 nM
apparent KD of MS2 coat protein [1]: 138 nM
apparent KD of MS2 coat protein [3]: 112 nM

UGUAUGUGAUCUGAUACCAGAGUGACGCGAAAGCGAACCUGAGGAUCACCCUGGUAAUAACUCCCUUGGCAGCAGAUCGCAUACU
apparent KD of MS2 coat protein (input ligand: arginine 13.2 mM): 73.1 nM
apparent KD of MS2 coat protein (input ligand: none): 61.1 nM
apparent KD of MS2 coat protein [1]: 44.3 nM
apparent KD of MS2 coat protein [2]: 20.7 nM
apparent KD of MS2 coat protein [3]: 69.8 nM

GUCUUGGAAUCGGCCGCCACUACAUGAGGAUCACCCAUGUGGACAAAUAGGGUUUUUAAGCUCGGUAGGACCGGGAUUCGGACAU [Mamaon]
apparent KD of MS2 coat protein (input ligand: arginine 13.2 mM): 12.3 nM
apparent KD of MS2 coat protein (input ligand: none): 14.3 nM
apparent KD of MS2 coat protein [1]: 15.9 nM
apparent KD of MS2 coat protein [2]: 18 nM
apparent KD of MS2 coat protein [3]: 66 nM

UGGCAGGAGUGAUCCUCCUGCCAAGGUGAUACCAGCAUCGAAAGAUGCCCUUGGCAGCACCAACAUGAGGAUCACCCAUGUAAUA [(MT)''-(M)'-(T')-(Theo)-(Ms2)_Design1/22_10]
apparent KD of MS2 coat protein (input ligand: arginine 13.2 mM): 34.1 nM
apparent KD of MS2 coat protein [1]: 177 nM
apparent KD of MS2 coat protein [3]: 104 nM

GGGUGUGAUCCGGAUACCAGCGAACAUGAGGAUCACCCAUGUGACCUGAGAUCGGCUCUACGCCCUUGGCAGCCGCGAUCGCAGG [Same State Theophylline B GF12]
apparent KD of MS2 coat protein (input ligand: none): 18.8 nM
apparent KD of MS2 coat protein [1]: 105 nM
apparent KD of MS2 coat protein [2]: 37.9 nM
apparent KD of MS2 coat protein [3]: 13.1 nM

CUCCCGUGGUCGGCCGCCACUGGAGGCCUCGCGCGACAUGAGGAUCACCCAUGUUGGCCCGGCGUCAGGACCGGGAUCGCGUGAG [#1 Same State - Tryptophan B Attempt #9 (HarryS)]
apparent KD of MS2 coat protein (input ligand: arginine 13.2 mM): 11.8 nM
apparent KD of MS2 coat protein (input ligand: none): 11 nM
apparent KD of MS2 coat protein [1]: 10.3 nM
apparent KD of MS2 coat protein [2]: 12.1 nM
apparent KD of MS2 coat protein [3]: 10.8 nM

GGAUAGAUAGGAGAUACCAGAUACAUAAACAUGAGGAUCACCCAUGUGUCUGCACUAAGUAUCCCUUGGCAGCUCGGAGAUCUGA [#17 Same State - Theophylline B]
apparent KD of MS2 coat protein (input ligand: arginine 13.2 mM): 17.4 nM
apparent KD of MS2 coat protein [1]: 21.7 nM
apparent KD of MS2 coat protein [3]: 18.5 nM
